Results: US6548639 (BIOSTAPRO, dated 2003)

Target: T1, MAL-Sbi (aa 33-436, SEQ ID NO:3) (Staphylococcus aureus strain 8325-4, UniProt A6QJQ7 33-436)
T1 construct: Expressed in E. coli from pMAL-c2 (BamHI-SalI insert), purified on amylose resin and then on IgG-Sepharose; also called MAL-fusion of protein Sbi; mature full length protein; not shown: its limits and the v
Assay: blot of the purified proteins overlaid with MAL-Sbi, detected with HRP-labelled chicken anti-Sbi

B1: bovine apolipoprotein H (other)
chain: GRTCPKPDELPFSTVVPLKRTYEPGEQIVFSCQPGYVSRGGIRRFTCPLTGLWPINTLKCMPRVCPFAGILENGTVRYTTFEYPNTISFSCHTGFYLKGASSAKCTEEGKWSPDLPVCAPITCPPPPIPKFASLSVYKPLAGNNSFYGSKAVFKCLPHHAMFGNDTVTCTEHGNWTQLPECREVRCPFPSRPDNGFVNHPANPVLYYKDTATFGCHETYSLDGPEEVECSKFGNWSAQPSCKASCKLSIKRATVIYEGERVAIQNKFKNGMLHGQKVSFFCKHKEKKCSYTEDAQCIDGTIEIPKCFKEHSSLAFWKTDASDVKPC
notes: mature; Serum protein; also called β2-glycoprotein I
- binding result: binds
